Laboratory results taken from paper PMC12572175 (2025).

Target: Protein A domain D (Staphylococcus aureus)
Assay: BLI

Binder	Kd [nM]
n501 T77A (antibody) EVQLVESGGGLVQPGGSLRLSCAASDFTFRNYEMSWVRQAPGKGLEWVSSISGSGGSTYYAHSLKGRFAISRDNSKNTLYLQMNSLRAEDTAIYYCARLRDGFNNGFDYWGQGTLVTVSS	324
n501 N92A (antibody) EVQLVESGGGLVQPGGSLRLSCAASDFTFRNYEMSWVRQAPGKGLEWVSSISGSGGSTYYAHSLKGRFTISRDNSKNTLYLQMASLRAEDTAIYYCARLRDGFNNGFDYWGQGTLVTVSS	328
